To fix the notation:
B1: Nuclear factor of activated T-cells, cytoplasmic 1 (Homo sapiens), O95644 (parent)
chain: MPSTSFPVPSKFPLGPAAAVFGRGETLGPAPRAGGTMKSAEEEHYGYASSNVSPALPLPTAHSTLPAPCHNLQTSTPGIIPPADHPSGYGAALDGGPAGYFLSSGHTRPDGAPALESPRIEITSCLGLYHNNNQFFHDVEVEDVLPSSKRSPSTATLSLPSLEAYRDPSCLSPASSLSSRSCNSEASSYESNYSYPYASPQTSPWQSPCVSPKTTDPEEGFPRGLGACTLLGSPRHSPSTSPRASVTEESWLGARSSRPASPCNKRKYSLNGRQPPYSPHHSPTPSPHGSPRVSVTDDSWLGNTTQYTSSAIVAAINALTTDSSLDLGDGVPVKSRKTTLEQPPSVALKVEPVGEDLGSPPPPADFAPEDYSSFQHIRKGGFCDQYLAVPQHPYQWAKPKPLSPTSYMSPTLPALDWQLPSHSGPYELRIEVQPKSHHRAHYETEGSRGAVKASAGGHPIVQLHGYLENEPLMLQLFIGTADDRLLRPHAFYQVHRITGKTVSTTSHEAILSNTKVLEIPLLPENSMRAVIDCAGILKLRNSDIELRKGETDIGRKNTRVRLVFRVHVPQPSGRTLSLQVASNPIECSQRSAQELPLVEKQSTDSYPVVGGKKMVLSGHNFLQDSKVIFVEKAPDGHHVWEMEAKTDRDLCKPNSLVVEIPPFRNQRITSPVHVSFYVCNGKRKRSQYQRFTYLPANVPIIKTEPTDDYEPAPTCGPVSQGLSPLPRPYYSQQLAMPPDPSSCLVAGFPPCPQRSTLMPAAPGVSPKLHDLSPAAYTKGVASPGHCHLGLPQPAGEAPAVQDVPRPVATHPGSPGQPPPALLPQQVSAPPSSSCPPGLEHSLCPSSPSPPLPPATQEPTCLQPCSPACPPATGRPQHLPSTVRRDESPTAGPRLLPEVHEDGSPNLAPIPVTVKREPEELDQLYLDDVNEIIRNDLSSTSTHS

This assay covers variants of B1. The conditions noted are these: with jak3_human JAK3, P52333.
jak3_human JAK3, P52333, sequence (P52333 whole entry): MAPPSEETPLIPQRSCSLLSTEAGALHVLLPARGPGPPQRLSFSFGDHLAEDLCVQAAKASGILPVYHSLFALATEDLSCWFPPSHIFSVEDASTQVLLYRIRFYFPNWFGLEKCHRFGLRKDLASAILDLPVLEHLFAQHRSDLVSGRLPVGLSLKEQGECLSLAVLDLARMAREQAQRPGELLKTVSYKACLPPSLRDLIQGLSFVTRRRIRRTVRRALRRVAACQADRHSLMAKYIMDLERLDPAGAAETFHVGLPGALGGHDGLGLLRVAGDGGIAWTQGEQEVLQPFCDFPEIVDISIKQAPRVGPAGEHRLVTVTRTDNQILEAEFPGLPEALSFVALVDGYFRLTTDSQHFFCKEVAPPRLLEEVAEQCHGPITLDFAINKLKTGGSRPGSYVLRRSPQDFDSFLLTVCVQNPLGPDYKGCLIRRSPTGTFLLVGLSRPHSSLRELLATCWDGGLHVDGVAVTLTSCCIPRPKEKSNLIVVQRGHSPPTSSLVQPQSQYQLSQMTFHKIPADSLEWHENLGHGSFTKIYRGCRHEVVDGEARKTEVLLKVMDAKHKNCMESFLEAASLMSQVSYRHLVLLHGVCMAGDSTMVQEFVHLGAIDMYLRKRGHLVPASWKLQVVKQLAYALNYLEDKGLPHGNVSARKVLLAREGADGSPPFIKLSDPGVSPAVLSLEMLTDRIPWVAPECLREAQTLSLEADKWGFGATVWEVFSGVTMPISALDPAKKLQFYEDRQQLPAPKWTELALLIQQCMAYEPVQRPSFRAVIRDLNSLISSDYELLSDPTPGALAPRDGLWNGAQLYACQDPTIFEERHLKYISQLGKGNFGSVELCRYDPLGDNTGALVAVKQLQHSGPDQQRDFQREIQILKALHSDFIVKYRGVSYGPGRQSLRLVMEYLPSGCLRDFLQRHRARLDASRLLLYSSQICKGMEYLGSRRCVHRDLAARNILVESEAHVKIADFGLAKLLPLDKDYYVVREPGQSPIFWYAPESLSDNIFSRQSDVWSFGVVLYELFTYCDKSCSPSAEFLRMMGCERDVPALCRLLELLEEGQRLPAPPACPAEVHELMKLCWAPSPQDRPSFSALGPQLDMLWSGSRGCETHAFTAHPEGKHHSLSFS
On to Y371A, for which the “effect of a mutation on the interaction” value is reported as “disrupting interaction”.

Source of the values: IntAct's records for PubMed 23263556.
